Measurements published in patent US20250152746A1, “BASE EDITING OF ANGPTL3 AND METHODS OF USING SAME FOR TREATMENT OF DISEASE” (Verve Therapeutics, Inc., priority 2020, published 2025).

Assays:
[1] = test system: ANGPTL3; details: phase I clinical trials; cited from earlier work
[2] = test system: PCSK9 gene splice site; assay type: cell-based, cynomolgus monkey
Experimental: (§1) PCSK9 gRNAs were co-transfected with an equivalent amount of in vitro transcribed ABE8.8 mRNA MA002 (1:1 ratio by weight) into primary hepatocytes and processed as described in detailed methods. In one set of experiments, extracted genomic DNA was analyzed for base editing of the target splice site with next-generation sequencing of PCR amplicons generated around the target sites. Samples were prepared using the Nextera XT DNA library preparation kit (Illumina) according to the manufacturer's protocol. Briefly, two rounds of PCR were performed first to amplify the region of interest and second to add DNA sequences required for next generation sequencing and sample identification to the initial product. The final amplicon was sequenced on the Illumina MiSeq instrument according to the manufacturer's protocol.
(§2) Similarly, three gRNAs (GA098, GA099, GA100) were synthesized matching the 5′-[…]-3′ (SEQ ID NO: 15) (GA091) human protospacer sequence, as well as four gRNAs (GA067/GA101, GA102, GA103, GA347) matching the 5′-[…]-3′ (SEQ ID NO: 14) (GA067) cynomolgus protospacer sequence, but with more extensive chemical modifications of various kinds (Table 1). GA066 and GA095 contain the same chemical composition and modification pattern, as do GA067 and GA101 with one another. […] Each of the gRNAs described in Table 8, with an equivalent amount of in vitro transcribed ABE8.8 mRNA MA002 (1:1 ratio by weight), were co-transfected into primary human hepatocytes and primary cynomolgus hepatocytes via MessengerMax reagent, using various dilutions to assess for editing activity at different concentrations of test article. Three days after transfection, genomic DNA was harvested from the hepatocytes, and then assessed for base editing of the target splice site with next-generation sequencing.
(§3) Modifications and/or truncations to either the spacer or tracr portion of the gRNA was assessed by alteration of the GA066 spacer (5′-[…]-3′ (SEQ ID NO: 13)) (Table 12). […] Each of the gRNAs with an equivalent amount of in vitro transcribed ABE8.8 mRNA (1:1 ratio by weight) were co-transfected into primary human hepatocytes and primary cynomolgus hepatocytes and processed as described in detailed methods.
Lipid nanoparticles containing ABE8.8 mRNA and a gRNA matching the human/cynomolgus 5′-[…]-3′ (SEQ ID NO: 13) sequence (GA066) that targets the splice donor at the 5′ end of PCSK9 intron 1 were formulated at a 1:1 ratio by weight. The LNPs were administered to primary human hepatocytes and primary cynomolgus hepatocytes, using various dilutions to assess for editing activity at different concentrations of test article. LNP containing Cas9 mRNA and a gRNA matching a protospacer sequence in another gene, ANGPTL3, as a positive control was used for these experiments.
Plating, culturing, and transfection of primary hepatocytes. Primary human liver hepatocytes (PHH) and primary cynomolgus liver hepatocytes (PCH) from BioIVT were cultured per the manufacturer's protocol. Briefly, primary human hepatocytes and primary cyno hepatocytes were obtained as frozen aliquots from BioIVT.

[3] = test system: PCSK9 gene splice site; assay type: cell-based, human; details: for editing activities, ranking of guides: ABE8.8 mRNA MA002
Experimental: as §1, §2
as §3, with “methods. […]” for “methods.”

| Molecule | lipid lowering effect [1] | Cynomolgous Primary Hepatocytes-splice site editing % 1250 ng/mL [2] | Cynomolgous Primary Hepatocytes-splice site editing % 2500 ng/mL [2] | Cynomolgous Primary Hepatocytes-splice site editing % 5000 ng/mL [2] | Human Primary Hepatocytes-splice site editing % 1250 ng/mL [3] | Human Primary Hepatocytes-splice site editing % 2500 ng/mL [3] | Human Primary Hepatocytes-splice site editing % 5000 ng/mL [3] | editing activities, ranking of guides [3] |
| --- | --- | --- | --- | --- | --- | --- | --- | --- |
| evinacumab | significant lipid lowering effect | – | – | – | – | – | – | – |
| GA080: PCSK9 gRNA for ABE8.8 splice site editing, Human/Cyno (nucleic acid, 2'-O-methyl at 1, 2, other sugars and backbone not given here; further chemistry not fully specified, PCSK9 gRNA for ABE8.8 splice site editing, Human/Cyno) guide: CCTTTCCAGGTCATCACAGTGTTTTAGAGCTAGAAATAGCAAGTTAAAATAAGGCTAGTCCGTTATCAACTTGAAAAAGTGGCACCGAGTCGGTGCTTTT | – | 7.1% | 8.8% | 7.0% | 0.4% | 0.5% | 0.6% | – |
| GA077: PCSK9 gRNA for ABE8.8 splice site editing, Human/Cyno (nucleic acid, 2'-O-methyl at 1, 2, other sugars and backbone not given here; further chemistry not fully specified, PCSK9 gRNA for ABE8.8 splice site editing, Human/Cyno) guide: UCCCAGGCCTGGAGTTTATTGTTTTAGAGCTAGAAATAGCAAGTTAAAATAAGGCTAGTCCGTTATCAACTTGAAAAAGTGGCACCGAGTCGGTGCTTTT | – | 4.1% | 5.7% | 5.4% | 2.8% | 5.7% | 6.0% | – |
| GA087: PCSK9 gRNA for ABE8.8 splice site editing, Human/Cyno (nucleic acid, 2'-O-methyl at 1, 2, other sugars and backbone not given here; further chemistry not fully specified, PCSK9 gRNA for ABE8.8 splice site editing, Human/Cyno) guide: UCACCTGCTCCTGAGGGGCCGTTTTAGAGCTAGAAATAGCAAGTTAAAATAAGGCTAGTCCGTTATCAACTTGAAAAAGTGGCACCGAGTCGGTGCTTTT | – | 0.2% | 0.2% | 0.2% | 1.0% | 1.4% | 1.9% | – |
| GA081: PCSK9 gRNA for ABE8.8 splice site editing, Human/Cyno (nucleic acid, listed as RNA; modified_base 1: mod_base = OTHER; note = 2'-O-Methyl-uridine phosphorothioate; modified_base 2: mod_base = OTHER; modified_base, PCSK9 gRNA for ABE8.8 splice site editing, Human/Cyno) guide: TTTCCAGGTCATCACAGTTGGTTTTAGAGCTAGAAATAGCAAGTTAAAATAAGGCTAGTCCGTTATCAACTTGAAAAAGTGGCACCGAGTCGGTGCTTTT | – | 0.3% | 0.3% | 0.3% | 4.3% | 6.1% | 8.3% | – |
| GA072: PCSK9 gRNA for ABE8.8 splice site editing, Human/Cyno (nucleic acid, 2'-O-methyl at 1, 2, other sugars, backbone and T or U not given here; further chemistry not fully specified, PCSK9 gRNA for ABE8.8 splice site editing, Human/Cyno) guide: GGTGGCTCACCAGCTCCAGCGTTTTAGAGCTAGAAATAGCAAGTTAAAATAAGGCTAGTCCGTTATCAACTTGAAAAAGTGGCACCGAGTCGGTGCTTTT | – | 2.3% | 1.7% | 2.2% | 1.5% | 2.2% | 2.5% | – |
| GA088: PCSK9 gRNA for ABE8.8 splice site editing, Human/Cyno (nucleic acid, 2'-O-methyl at 1, 2, other sugars and backbone not given here; further chemistry not fully specified, PCSK9 gRNA for ABE8.8 splice site editing, Human/Cyno) guide: CCCAGGCTGCAGCTCCCACTGTTTTAGAGCTAGAAATAGCAAGTTAAAATAAGGCTAGTCCGTTATCAACTTGAAAAAGTGGCACCGAGTCGGTGCTTTT | – | 17.0% | 23.0% | 24.8% | 3.6% | 6.2% | 7.2% | – |
| GA074: PCSK9 gRNA; protospacer TGCTTACCTGTCTGTGGAAG (SEQ ID NO: 68), splice donor of intron 4 (nucleic acid, listed as RNA; modified_base 1: mod_base = OTHER; note = 2'-O-Methyl-uridine phosphorothioate; modified_base 2: mod_base = OTHER; note = 2'-O-Methyl-guanosine phosphorothioate; modified_ba) guide: TGCTTACCTGTCTGTGGAAGGTTTTAGAGCTAGAAATAGCAAGTTAAAATAAGGCTAGTCCGTTATCAACTTGAAAAAGTGGCACCGAGTCGGTGCTTTT | – | 17.5% | 20.1% | 18.7% | 11.6% | 18.8% | 23.8% | performing the best |
| GA073: PCSK9 gRNA; protospacer GCTTACCTGTCTGTGGAAGC (SEQ ID NO: 67), splice donor of intron 4 (nucleic acid, listed as RNA; modified_base 1: mod_base = OTHER; note = 2'-O-Methyl-guanosine phosphorothioate; modified_base 2: mod_base = OTHER; note = 2'-O-Methyl-cytidine phosphorothioate; modified_b) guide: GCTTACCTGTCTGTGGAAGCGTTTTAGAGCTAGAAATAGCAAGTTAAAATAAGGCTAGTCCGTTATCAACTTGAAAAAGTGGCACCGAGTCGGTGCTTTT | – | 24.7% | 23.2% | 29.2% | 11.2% | 17.5% | 25.4% | performing the best |
| GA079: PCSK9 gRNA for ABE8.8 splice site editing, Human/Cyno (nucleic acid, listed as RNA; modified_base 1: mod_base = OTHER; note = 2'-O-Methyl-cytidine phosphorothioate; modified_base 2: mod_base = OTHER; note = 2'-O-Methyl-uridine phosphorothioate; modified_bas, PCSK9 gRNA for ABE8.8 splice site editing, Human/Cyno) guide: CTTTCCAGGTCATCACAGTTGTTTTAGAGCTAGAAATAGCAAGTTAAAATAAGGCTAGTCCGTTATCAACTTGAAAAAGTGGCACCGAGTCGGTGCTTTT | – | 0.6% | 0.5% | 0.5% | 2.2% | 4.9% | 6.5% | – |
